Patent US20150284762, “METHOD FOR PRODUCING PROTEIN-NUCLEIC ACID CONJUGATE, AND METHOD FOR DETECTING TARGET SUBSTANCE” (KYUSHU UNIVERSITY, NATIONAL UNIVERSITY CORPORATION, published 2015)

B1: FITC-thrombin DNA aptamer with T15 linker (30 mer) (ssDNA)
DNA: GGTTGGTGTGGTTGGTTTTTTTTTTTTTTT
B2: (BAP)-(PEG)3-aptamer, single label (ssDNA)
DNA: B1 DNA
modifications: 3' single Z-QG-(PEG)3-ddUTP crosslinked to NK14-BAP
B3: (BAP)-aptamer, single label (ssDNA)
DNA: B1 DNA
modifications: 3' single Z-QG-ddUTP crosslinked to NK14-BAP

target: thrombin (UniProt P00734;P00734 P00734:328-363,P00734:364-622); assay: ELONA

Binding result, binds:
B1
B2
B3
